Results on five molecules are retold here after paper PMC6525239, “Hexameric NuMA:LGN structures promote multivalent interactions required for planar epithelial divisions” (Nature Communications, 2019).

Data set [1] deals with the molecule itself. Nature of the data set: SEC-MALS; static light scattering (SLS) on a Viscotek GPCmax/TDA with two TSKgel G3000PWxl columns in series; 75 μl of purified sample at about 1.5–2 mg/ml.
The target in data set [2] is LGN^TPR-ΔOLIGO (LGN^13–350) (human). The data set is described as above.
The target in the next data set is T1, LGN^7–367 (human).
T1 sequence (P81274 whole entry, looked up): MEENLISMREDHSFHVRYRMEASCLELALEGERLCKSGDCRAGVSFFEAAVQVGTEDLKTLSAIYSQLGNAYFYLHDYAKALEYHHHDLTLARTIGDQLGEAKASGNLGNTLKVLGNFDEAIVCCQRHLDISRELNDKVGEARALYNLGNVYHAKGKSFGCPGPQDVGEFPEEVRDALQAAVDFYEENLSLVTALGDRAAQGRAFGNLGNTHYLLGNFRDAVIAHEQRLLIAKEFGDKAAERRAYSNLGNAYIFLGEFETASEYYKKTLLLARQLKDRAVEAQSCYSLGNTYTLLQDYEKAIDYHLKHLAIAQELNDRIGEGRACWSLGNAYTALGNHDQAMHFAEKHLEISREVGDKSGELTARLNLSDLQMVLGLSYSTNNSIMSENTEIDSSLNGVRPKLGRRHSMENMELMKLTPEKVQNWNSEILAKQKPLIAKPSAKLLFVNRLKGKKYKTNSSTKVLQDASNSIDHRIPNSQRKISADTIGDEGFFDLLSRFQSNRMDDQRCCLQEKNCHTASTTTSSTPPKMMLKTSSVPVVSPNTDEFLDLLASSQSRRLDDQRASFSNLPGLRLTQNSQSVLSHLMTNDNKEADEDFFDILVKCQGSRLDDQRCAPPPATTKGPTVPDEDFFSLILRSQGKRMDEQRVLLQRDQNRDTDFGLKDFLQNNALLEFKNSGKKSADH
The description is as above.

For another data set, the target named is T2, LGN^13–409 (human).
T2 sequence (P81274 whole entry, looked up): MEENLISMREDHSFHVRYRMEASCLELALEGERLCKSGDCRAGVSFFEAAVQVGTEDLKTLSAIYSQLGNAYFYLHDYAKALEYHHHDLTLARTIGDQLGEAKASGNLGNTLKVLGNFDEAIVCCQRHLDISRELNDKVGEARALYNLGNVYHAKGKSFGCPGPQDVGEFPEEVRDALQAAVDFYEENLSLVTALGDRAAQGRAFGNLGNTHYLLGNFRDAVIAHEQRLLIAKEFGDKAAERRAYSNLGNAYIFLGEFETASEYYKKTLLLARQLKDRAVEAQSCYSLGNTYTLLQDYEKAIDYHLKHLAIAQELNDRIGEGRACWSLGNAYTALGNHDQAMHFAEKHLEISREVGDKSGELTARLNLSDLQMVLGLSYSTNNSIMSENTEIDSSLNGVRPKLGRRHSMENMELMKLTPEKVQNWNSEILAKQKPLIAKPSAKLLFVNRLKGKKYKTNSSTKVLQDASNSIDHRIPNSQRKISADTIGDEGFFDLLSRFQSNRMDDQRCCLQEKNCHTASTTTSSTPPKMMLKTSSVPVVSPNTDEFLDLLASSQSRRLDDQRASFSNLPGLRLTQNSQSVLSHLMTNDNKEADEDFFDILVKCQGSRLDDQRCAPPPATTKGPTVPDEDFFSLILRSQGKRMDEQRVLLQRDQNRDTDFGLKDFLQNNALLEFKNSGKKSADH
Kind of data set: SEC + SEC-MALS; SEC and SLS assays on a battery of truncated LGN and NuMA mutants (Fig. 1c, d).

The target of the next data set is T3, LGN^1–350 (human).
T3 sequence (P81274 whole entry, looked up): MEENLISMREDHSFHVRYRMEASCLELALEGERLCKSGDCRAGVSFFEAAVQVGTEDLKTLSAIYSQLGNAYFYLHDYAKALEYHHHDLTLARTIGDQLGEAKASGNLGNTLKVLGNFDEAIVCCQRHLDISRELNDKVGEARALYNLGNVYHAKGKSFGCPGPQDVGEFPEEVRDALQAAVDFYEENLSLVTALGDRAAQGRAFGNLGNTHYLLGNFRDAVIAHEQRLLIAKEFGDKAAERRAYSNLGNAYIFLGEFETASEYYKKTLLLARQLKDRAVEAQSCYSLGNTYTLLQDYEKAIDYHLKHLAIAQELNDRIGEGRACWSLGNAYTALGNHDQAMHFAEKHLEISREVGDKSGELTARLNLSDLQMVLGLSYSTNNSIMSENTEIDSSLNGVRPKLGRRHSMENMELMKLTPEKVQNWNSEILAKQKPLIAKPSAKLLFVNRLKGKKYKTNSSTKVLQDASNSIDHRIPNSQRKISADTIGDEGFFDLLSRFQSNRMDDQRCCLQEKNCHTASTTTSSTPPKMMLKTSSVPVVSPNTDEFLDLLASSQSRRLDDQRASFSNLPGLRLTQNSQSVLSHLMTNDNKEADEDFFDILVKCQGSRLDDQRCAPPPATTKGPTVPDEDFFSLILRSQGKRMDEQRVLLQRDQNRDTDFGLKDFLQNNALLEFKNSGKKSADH
The description is as above.

Data set [3] has as its target T4, LGN^1–409 (TPR domain of LGN) (human).
T4 sequence (P81274 whole entry, looked up): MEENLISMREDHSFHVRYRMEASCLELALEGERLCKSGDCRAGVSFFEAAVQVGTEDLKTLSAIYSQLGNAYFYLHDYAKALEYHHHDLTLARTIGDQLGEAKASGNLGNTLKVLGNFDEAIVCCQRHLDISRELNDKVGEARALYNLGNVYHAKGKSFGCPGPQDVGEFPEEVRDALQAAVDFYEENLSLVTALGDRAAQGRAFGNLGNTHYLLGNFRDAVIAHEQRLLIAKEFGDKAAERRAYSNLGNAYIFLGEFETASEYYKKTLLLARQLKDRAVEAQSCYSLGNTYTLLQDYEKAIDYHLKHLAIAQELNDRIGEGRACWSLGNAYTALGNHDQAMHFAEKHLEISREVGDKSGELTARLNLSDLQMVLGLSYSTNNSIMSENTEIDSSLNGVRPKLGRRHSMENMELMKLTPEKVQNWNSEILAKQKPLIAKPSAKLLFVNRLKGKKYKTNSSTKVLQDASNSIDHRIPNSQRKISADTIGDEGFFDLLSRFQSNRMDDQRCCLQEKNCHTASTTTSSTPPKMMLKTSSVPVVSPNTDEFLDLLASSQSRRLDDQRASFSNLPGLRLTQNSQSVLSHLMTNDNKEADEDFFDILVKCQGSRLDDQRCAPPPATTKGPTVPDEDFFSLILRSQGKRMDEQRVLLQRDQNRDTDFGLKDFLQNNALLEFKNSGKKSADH
Nature of the data set: SEC; analytical SEC, Superdex-200 Increase 3.2/300; LGN and NuMA variants mixed in equimolar amounts (20 μM; LGN^TPR:NuMA^PEPT 1:2); 20 mM Tris-HCl pH 8.0, 0.150 M NaCl, 5% glycerol, 1 mM DTT; fractions checked by SDS-PAGE.

Another data set deals with αβ-tubulin hetero-dimers (UniProt P02554 1-445). Nature of the data set: SEC; Superdex-200 Increase 3.2/300; 26 µM NuMA^2002–2115 and 20 µM αβ-tubulin hetero-dimers; GT buffer (80 mM PIPES pH 6.8, 1 mM MgCl2, 1 mM EGTA) with 60 mM NaCl and 1 mM DTT; Tris-Tricine-SDS-PAGE. The following applies: both partners purified.
Sequence of αβ-tubulin hetero-dimers (P68363 whole entry, chain 1 of 2): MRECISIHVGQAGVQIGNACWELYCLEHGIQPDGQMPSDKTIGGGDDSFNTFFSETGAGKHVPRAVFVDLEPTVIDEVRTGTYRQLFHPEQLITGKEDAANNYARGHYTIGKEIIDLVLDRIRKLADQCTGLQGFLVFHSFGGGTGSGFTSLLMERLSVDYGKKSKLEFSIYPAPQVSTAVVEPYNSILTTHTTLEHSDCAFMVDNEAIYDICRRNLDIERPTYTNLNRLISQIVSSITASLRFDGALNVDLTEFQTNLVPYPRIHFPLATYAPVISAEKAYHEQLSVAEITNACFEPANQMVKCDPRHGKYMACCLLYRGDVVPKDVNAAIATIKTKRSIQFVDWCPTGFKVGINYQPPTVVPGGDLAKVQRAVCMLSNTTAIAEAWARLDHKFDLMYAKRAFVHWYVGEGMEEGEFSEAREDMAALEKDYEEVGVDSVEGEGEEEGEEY
Sequence of αβ-tubulin hetero-dimers (P02554 whole entry, chain 2 of 2): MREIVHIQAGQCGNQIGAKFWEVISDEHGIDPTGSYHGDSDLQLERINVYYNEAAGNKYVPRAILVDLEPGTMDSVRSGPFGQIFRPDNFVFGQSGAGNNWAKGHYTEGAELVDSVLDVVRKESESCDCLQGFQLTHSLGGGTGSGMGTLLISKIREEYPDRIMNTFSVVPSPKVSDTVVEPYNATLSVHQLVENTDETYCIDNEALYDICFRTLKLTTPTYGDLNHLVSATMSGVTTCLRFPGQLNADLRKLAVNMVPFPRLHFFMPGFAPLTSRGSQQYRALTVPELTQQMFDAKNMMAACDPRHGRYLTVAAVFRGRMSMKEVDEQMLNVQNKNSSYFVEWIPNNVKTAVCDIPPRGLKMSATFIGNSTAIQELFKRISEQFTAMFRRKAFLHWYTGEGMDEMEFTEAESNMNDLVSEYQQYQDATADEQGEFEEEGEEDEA

B1: NuMA chimera (NuMA 1592–1694 joined to NuMA 1821–2001 by eight Thr-Gly-Ser repeats) (domain or fragment, human)
chain: QLNELQAQLSQKEQAAEHYKLQMEKAKTHYDAKKQQNQELQEQLRSLEQLQKENKELRAEAERLGHELQQAGLKTKEAEQTCRHLTAQVRSLEAQVAHADQQLTGSTGSTGSTGSTGSTGSTGSTGSKKLDVEEPDSANSSFYSTRSAPASQASLRATSSTQSLARLGSPDYGNSALLSLPGYRPTTRSSARRSQAGVSSGAPPGRNSFYMGTCQDEPEQLDDWNRIAELQQRNRVCPPHLKTCYPLESRPSLSLGTITDEEMKTGDPQETLRRASMQPIQIAEGTGITTRQQRKRVSLEPHQGPGTP
notes: NuMA, human, residues 1592-1694 (dimerizing coiled-coil); also called chimeric NuMA construct; source: E. coli BL21 Rosetta, purified (Ni HiTrap chelating, PreScission cleavage, Resource-Q, Superose-6)
Take B1: the “stoichiometry N” value in data set [1] is 2; in data set [2], 1.

B2: NuMA^1861–1928 (domain or fragment)
chain: GSPDYGNSALLSLPGYRPTTRSSARRSQAGVSSGAPPGRNSFYMGTCQDEPEQLDDWNRIAELQQRNR
B2: the stoichiometry N with LGN^7–367 (human), in the data set with LGN^13–409 (human) and in the data set with LGN^1–350 (human) was 1 throughout.

B3: NuMA^1592–1694 (domain or fragment, human, UniProt Q14980 1592-1694, looked up)
chain: QLNELQAQLSQKEQAAEHYKLQMEKAKTHYDAKKQQNQELQEQLRSLEQLQKENKELRAEAERLGHELQQAGLKTKEAEQTCRHLTAQVRSLEAQVAHADQQL
notes: NuMA, human, residues 1592-1694 (C-terminal portion of the coiled coil); also called C-terminal part of the NuMA coiled-coil
As to B3, in data set [1], the “stoichiometry N” value was 2.

The molecule NSFYMGTCQDEPEQLDDWNRIAELQQRNR [NuMA^1900–1928] showed a stoichiometry N in data set [3] of 1.

B4: NuMA^2002–2115 (domain or fragment, human, UniProt Q14980 2002-2115, looked up)
chain: ESKKATSCFPRPMTPRDRHEGRKQSTTEAQKKAAPASTKQADRRQSMAFSILNTPKKLGNSLLRRGASKKALSKASPNTRSGTRRSPRIATTTASAATAAAIGATPRAKGKAKH
Turning to B4, in the data set with αβ-tubulin hetero-dimers, the “stoichiometry N” value amounted to 1.
